The source of these data is patent US20260193307A1 (ASKGENE PHARMA, published 2026).

In assay [1] the target is T1, IL-2 (UniProt P60568 21-153). Briefly: ForteBio (BLI), purified scFv-Fc to IL-2. In general terms: BLI is a label-free optical method that tracks binding on a fibre tip over time.
In assay [2] the target is T1, IL-2. As to the kind of experiment: cell-based or functional assay.

A word on the Kd: it is the free concentration of one partner at which half of the binding sites on the other are occupied at equilibrium, for simple one-to-one binding. A higher Kd goes with a looser complex.

A value given as a limit tells only on which side of the number the result lay.

T1 sequence (P60568 21-153 limits assumed): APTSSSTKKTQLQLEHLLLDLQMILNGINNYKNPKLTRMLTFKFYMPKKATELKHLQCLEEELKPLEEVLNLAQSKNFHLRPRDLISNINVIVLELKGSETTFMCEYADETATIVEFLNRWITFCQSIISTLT

B1: K1-69H5 scFv-Fc (JR8.144.3) (Fc fusion)
chain: EIVLTQSPGTLSLSPGERATLSCRASQSVSSSYLAWYQQKPGQAPRLLIYGASSRATGIPDRFSGSGSGTDFTLTISRLEPEDFAVYYCQQYSRAPGTFGQGTKVEIKAGGGGSGGGGSGGGGSQVQLVQSGAEVKKPGSSVKVSCKASGGTFSSYGIHWVRQAPGQGLEWMGGIIPILGTANYAQKFQGRVTITADESTSTAYMELSSLRSEDTAVYYCAVPFFDVWGQGTLVTVSS
notes: Purified scFv-Fc homodimer; also called JR8.144.3 K1-69H5; not shown: Fc fragment (human Fc domain)
In the assay with IL-2 [1], B1 registered a Kd of less than 0.001 nM and a Response of 3. Moreover, the “IC50, CTLL2 cell-based IL-2 activity inhibition assay (50 nM IL-2)” value with IL-2 [2] is 11.3 nM.

B2: K1-69C7 scFv-Fc (JR8.153.1) (Fc fusion)
chain: DIQMTQSPSSLSASVGDRVTITCRASQDISNYLNWYQQKPGKAPKLLIYGASSLQSGVPSRFSGSGSGTDFTLTISSLQPEDFATYYCQQTYTIPLTFGQGTKVEIKAGGGGSGGGGSGGGGSQVQLVQSGAEVKKPGSSVKVSCKASGGTFTSYAINWVRQAPGQGLEWMGRIIPIIGRVDYAQKFQGRVTITADESTSTAYMELSSLRSEDTAVYYCARGFVGGFDVWGQGTLVTVSS
notes: Purified scFv-Fc homodimer; also called JR8.153.1 K1-69C7; not shown: Fc fragment (human Fc domain)
In the assay with IL-2 [1], B2 returned a Kd of 0.117 nM and a Response of 3.5. Besides, the “IC50, CTLL2 cell-based IL-2 activity inhibition assay (50 nM IL-2)” value with IL-2 [2] was 7 nM.

B3: K3-15F7 scFv-Fc (JR8.144.4) (Fc fusion)
chain: DIQMTQSPSSLSASVGDRVTITCRASQDIRRYLNWYQQKPGKAPKLLIYAASSLQSGVPSRFSGSGSGTDFTLTISSLQPEDFATYYCQQAYSIPLTFGQGTKVEIKGGGGSGGGGSGGGGSEVQLVESGGGLVKPGGSLRLSCAASGFTFSNAWMSWVRQAPGKGLEWVGRIKSKTAGGTTDYAAPVKGRFTISRDDSKNTLYLQMNSLKTEDTAVYYCARDWWYLDFDYWGQGTLVTVSS
notes: Purified scFv-Fc homodimer; also called JR8.144.4 K3-15F7; not shown: Fc fragment (human Fc domain)
Consider B3, for which, in the assay with IL-2 [1], the Kd was less than 0.001 nM and the Response came to 3.

B4: K3-30B12 scFv-Fc (JR8.156.6) (Fc fusion)
chain: DIQMTQSPSSLSASVGDRVTITCRASQDISTYLNWYQQKPGKAPKLLIYDASSLQSGVPSRFSGSGSGTDFTLTISSLQPEDFATYYCQQSYSAPLTFGQGTKVEIKAGGGGSGGGGSGGGGSEVQLLESGGGLVQPGGSLRLSCAASGFTFSTYAMSWVRQAPGKGLEWVSTISGSGVRTYYADSVKGRFTISRDNSKNTLYLQMNSLRAEDTAVYYCARETYIYGPFDVWGQGTLVTVSS
notes: Purified scFv-Fc homodimer; also called JR8.156.6 K3-30B12; not shown: Fc fragment (human Fc domain)
Regarding B4, in the assay with IL-2 [1], binding was put at a Kd of 0.605 nM and the Response amounted to 3.1.
